Measurements taken from publication PMC11167044.

Molecular target: PKM2 in SW480 cells (human (endogenous in SW480)) (UniProt P14618)
Test: cross-linking; PKM2 cross-linked in SW480 cells expressing MYG1 variants, following ref. 37; SDS-PAGE and western blot

Chain of PKM2 in SW480 cells, P14618 1-531 (enzyme; other documents disagree on this pair) (P14618 whole entry): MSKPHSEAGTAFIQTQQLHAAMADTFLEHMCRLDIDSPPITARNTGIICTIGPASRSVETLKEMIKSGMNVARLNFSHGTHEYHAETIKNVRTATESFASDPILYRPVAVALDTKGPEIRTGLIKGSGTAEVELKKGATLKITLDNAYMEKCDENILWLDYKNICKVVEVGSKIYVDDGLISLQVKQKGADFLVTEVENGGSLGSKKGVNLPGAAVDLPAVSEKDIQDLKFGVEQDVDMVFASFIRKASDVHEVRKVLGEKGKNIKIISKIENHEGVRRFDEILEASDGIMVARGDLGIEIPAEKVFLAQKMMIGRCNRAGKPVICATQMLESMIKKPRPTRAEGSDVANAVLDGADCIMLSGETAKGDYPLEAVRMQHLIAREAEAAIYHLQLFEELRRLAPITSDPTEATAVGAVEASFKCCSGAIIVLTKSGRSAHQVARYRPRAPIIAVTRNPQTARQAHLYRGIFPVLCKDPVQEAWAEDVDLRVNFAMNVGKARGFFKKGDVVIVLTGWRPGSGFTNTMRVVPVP

stoichiometry N: 2
Substance: PKM2 in SW480 cells, P14618 1-531 (enzyme; other documents disagree on this pair)
